Results on three molecules are retold here after patent publication US20210315238A1.

In data set [1] the test system is 26-mer peptide.
Data set [2] has as its system 33-mer peptide.
In data set [3] the target is wheat gliadin (Sigma, Cat. No. G3375) (wheat). The data set is described as follows: cell-based or functional assay.
Data set [4] has as its target T1, 26-mer peptide.
T1 chain: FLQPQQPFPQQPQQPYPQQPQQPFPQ

The target of data set [5] is T2, 33-mer peptide.
T2 chain: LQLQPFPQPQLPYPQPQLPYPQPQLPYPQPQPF

Read-outs that look alike come from different tables or passages of the source.

For Brewers Clarex, in the data set with 26-mer peptide [1], the Residual 26-mer peptide (mg/mL) after 0.5 ppm protease, 10 min 40 C, HPLC was determined as 0.65 mg/mL; the Residual 26-mer peptide (mg/mL) after 1 ppm protease, 10 min 40 C, HPLC turned out to be 0.46 mg/mL; the Residual 26-mer peptide (mg/mL) after 2 ppm protease, 10 min 40 C, HPLC came out at 0.2 mg/mL; the Residual immunogenicity of 26-mer peptide (%), competitive ELISA after protease treatment was found to be 99.6%. In the data set on 33-mer peptide [2], this molecule gave a Residual 33-mer peptide (mg/mL) after 0.5 ppm protease, 10 min 40 C, HPLC of 0.58 mg/mL; a Residual 33-mer peptide (mg/mL) after 1 ppm protease, 10 min 40 C, HPLC of 0.39 mg/mL; a Residual 33-mer peptide (mg/mL) after 2 ppm protease, 10 min 40 C, HPLC of 0.18 mg/mL; a Residual immunogenicity of 33-mer peptide (%), competitive ELISA after protease treatment of 73.7%.
For the molecule Brewers Clarex (enzyme), the Residual Immunogenicity (%) of wheat gliadin, competitive ELISA after protease treatment in data set [3] came to 59.7%.

B1: AflPro3 (protein)
chain: LSFLPGIKANNLQLASVLGIDGHTARFNPEKIAETAISRGSGSEVPARRISIPIDHEDPSMGTYQNRYWVSADFYKPGGPVFVLDAGEGNAYSVAQSYLGGSDNFFAEYLKEFNGLGLVWEHRYYGDSLPFPVNTSTPNEHFKYLTNSQALADLPYFAEKFTLNGTDLSPKSSPWIMLGGSYPGMRAAFTRNEYPDTIFASFAMSAPVEAWVNMTIYFEQVYRGMVANGLGGCAKDLKAINDYIDSQLDKKGQAADAIKTLFLGKEGIHNSNGDFTAALGSIYNLFQSYGVDGGEESLSQLCSYLDKEASPNGIARKIGVKELTEKFAAWPPLLYLINQWGSQVGNGDSNCKGQNNSTETVCELGGQFTDPDTISWTWQYCTEWGYLQADNVGPHSLLSKYQSLEYQQSLCYRQFPGAKESGLLPEHPEANETNAETGGWTIRPSNVFWSAGEFDPWRTLTPLSNETFAPKGVQISTNIPKCGVETPENVLFGYVIPRAEHCFDYDLSYKPADKSRKLFSLALKKWLPCWRSEHAPKGVQRKWM
In the data set with 26-mer peptide [4], B1 had a Residual 26-mer peptide (mg/mL) after 0.5 ppm protease, 10 min 40 C, HPLC of 0.38 mg/mL; a Residual 26-mer peptide (mg/mL) after 1 ppm protease, 10 min 40 C, HPLC of 0.17 mg/mL; a Residual 26-mer peptide (mg/mL) after 2 ppm protease, 10 min 40 C, HPLC of 0.05 mg/mL. For the same molecule, in the data set with 33-mer peptide [5], the Residual 33-mer peptide (mg/mL) after 0.5 ppm protease, 10 min 40 C, HPLC was found to be 0.09 mg/mL; the Residual 33-mer peptide (mg/mL) after 1 ppm protease, 10 min 40 C, HPLC stood at 0.01 mg/mL; the Residual 33-mer peptide (mg/mL) after 2 ppm protease, 10 min 40 C, HPLC is 0.01 mg/mL.
